T1: Human PTK7/CCK4 Protein, His Tag, Acro Biosystems PT7-H52H3 (human, UniProt Q13308 31-704)
T1 construct: bought protein; also called Human PTK7 Protein, His Tag, Acro Biosystems; not shown: His tag
T1 sequence: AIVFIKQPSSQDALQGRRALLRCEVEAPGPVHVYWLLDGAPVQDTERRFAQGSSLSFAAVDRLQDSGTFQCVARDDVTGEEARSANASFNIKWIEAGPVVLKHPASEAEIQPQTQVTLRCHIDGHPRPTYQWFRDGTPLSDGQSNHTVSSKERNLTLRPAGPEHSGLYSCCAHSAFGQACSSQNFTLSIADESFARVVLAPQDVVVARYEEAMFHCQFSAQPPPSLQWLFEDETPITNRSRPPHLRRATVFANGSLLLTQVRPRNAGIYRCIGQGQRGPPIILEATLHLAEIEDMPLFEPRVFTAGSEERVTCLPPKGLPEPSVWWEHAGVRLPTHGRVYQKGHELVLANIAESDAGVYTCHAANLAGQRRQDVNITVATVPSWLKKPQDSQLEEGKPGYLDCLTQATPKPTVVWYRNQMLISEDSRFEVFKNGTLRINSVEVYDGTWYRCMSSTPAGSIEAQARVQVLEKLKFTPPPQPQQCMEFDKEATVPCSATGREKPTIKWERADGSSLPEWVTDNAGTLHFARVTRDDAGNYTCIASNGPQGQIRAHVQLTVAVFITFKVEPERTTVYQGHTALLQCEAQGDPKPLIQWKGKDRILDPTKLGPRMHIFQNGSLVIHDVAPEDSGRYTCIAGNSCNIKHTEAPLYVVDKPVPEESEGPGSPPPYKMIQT


Molecular target: T1, Human PTK7/CCK4 Protein, His Tag, Acro …
Test: BLI, antibody on anti-human Fc sensor, 50 nM PTK7

binding result	Binder
binds	MYT11000 (antibody, V domains shown, IgG) VH: EVQLVESGGGLVQPGGSLRLSCTASGFSLSSYAMGWVRQAPGKGLEWVGFINAGGNTYYANWAKGRFTISRDTSKNTVYLQMNSLRAEDTAVYFCARRYSRASGWYDLWGQGTLVTVSS VL: EIVMTQSPSTLSASVGDRVIITCQASQSISSHLAWYQQKPGKAPKLLIYAASTLASGVPSRFSGSGSGAEFTLTISSLQPDDFATYYCQSYSYSSGIDYGDVFGQGTKLTVL
binds	MYT10999 (antibody, V domains shown, IgG) VH: EVQLVESGGGLVQPGGSLRLSCTASGFSLSSYAMGWVRQAPGKGLEWVGFINAGGNTYYANWAKGRFTISRDTSKNTVYLQMNSLRAEDTAVYFCARRYSRASGWYDLWGQGTLVTVSS VL: EIVMTQSPSTLSASVGDRVIITCQASQSISHYLAWYQQKPGKAPKLLIYAASTLASGVPSRFSGSGSGAEFTLTISSLQPDDFATYYCQSYSYSSGIDYGDVFGQGTKLTVL
binds	MYT11001 (antibody, V domains shown, IgG) VH: EVQLVESGGGLVQPGGSLRLSCTASGFSLSSYAMGWVRQAPGKGLEWVGFINAGGNTYYANWAKGRFTISRDTSKNTVYLQMNSLRAEDTAVYFCARRYSRASGWYDLWGQGTLVTVSS VL: EIVMTQSPSTLSASVGDRVIITCQASQSISSYHAWYQQKPGKAPKLLIYAASTLASGVPSRFSGSGSGAEFTLTISSLQPDDFATYYCQSYSYSSGIDYGDVFGQGTKLTVL
binds	MYT10978 (antibody, V domains shown, IgG) VH: EVQLVESGGGLVQPGGSLRLSCTASGFSLSSYAMGWVRQAPGKGLEWVGFINAGGNTYYANWAKGRFTISRDTSKNTVYLQMNSLRAEDTAVYFCAHRYSRASGWYDLWGQGTLVTVSS VL: EIVMTQSPSTLSASVGDRVIITCQASQSISSYLAWYQQKPGKAPKLLIYAASTLASGVPSRFSGSGSGAEFTLTISSLQPDDFATYYCQSYSYSSGIDYGDVFGQGTKLTVL
binds	MYT10980 (antibody, V domains shown, IgG) VH: EVQLVESGGGLVQPGGSLRLSCTASGFSLSSYAMGWVRQAPGKGLEWVGFINAGGNTYYANWAKGRFTISRDTSKNTVYLQMNSLRAEDTAVYFCARRHSRASGWYDLWGQGTLVTVSS VL: EIVMTQSPSTLSASVGDRVIITCQASQSISSYLAWYQQKPGKAPKLLIYAASTLASGVPSRFSGSGSGAEFTLTISSLQPDDFATYYCQSYSYSSGIDYGDVFGQGTKLTVL
binds	MYT11004 (antibody, V domains shown, IgG) VH: EVQLVESGGGLVQPGGSLRLSCTASGFSLSSYAMGWVRQAPGKGLEWVGFINAGGNTYYANWAKGRFTISRDTSKNTVYLQMNSLRAEDTAVYFCARRYSRASGWYDLWGQGTLVTVSS VL: EIVMTQSPSTLSASVGDRVIITCQASQSISSYLAWYQQKPGKAPKLLIYAHSTLASGVPSRFSGSGSGAEFTLTISSLQPDDFATYYCQSYSYSSGIDYGDVFGQGTKLTVL
binds	MYT10970 (antibody, V domains shown, IgG) VH: EVQLVESGGGLVQPGGSLRLSCTASGFSLSSYAMGWVRQAPGKGLEWVGFINAGGNTYHANWAKGRFTISRDTSKNTVYLQMNSLRAEDTAVYFCARRYSRASGWYDLWGQGTLVTVSS VL: EIVMTQSPSTLSASVGDRVIITCQASQSISSYLAWYQQKPGKAPKLLIYAASTLASGVPSRFSGSGSGAEFTLTISSLQPDDFATYYCQSYSYSSGIDYGDVFGQGTKLTVL
binds	MYT10997 (antibody, V domains shown, IgG) VH: EVQLVESGGGLVQPGGSLRLSCTASGFSLSSYAMGWVRQAPGKGLEWVGFINAGGNTYYANWAKGRFTISRDTSKNTVYLQMNSLRAEDTAVYFCARRYSRASGWYDLWGQGTLVTVSS VL: EIVMTQSPSTLSASVGDRVIITCQASQSHSSYLAWYQQKPGKAPKLLIYAASTLASGVPSRFSGSGSGAEFTLTISSLQPDDFATYYCQSYSYSSGIDYGDVFGQGTKLTVL

Continued, binder first:

Binder	binding result
MYT10959 (antibody, V domains shown, IgG) VH: EVQLVESGGGLVQPGGSLRLSCTASGFSLSSYAHGWVRQAPGKGLEWVGFINAGGNTYYANWAKGRFTISRDTSKNTVYLQMNSLRAEDTAVYFCARRYSRASGWYDLWGQGTLVTVSS VL: EIVMTQSPSTLSASVGDRVIITCQASQSISSYLAWYQQKPGKAPKLLIYAASTLASGVPSRFSGSGSGAEFTLTISSLQPDDFATYYCQSYSYSSGIDYGDVFGQGTKLTVL	binds
MYT10993 (antibody, V domains shown, IgG) VH: EVQLVESGGGLVQPGGSLRLSCTASGFSLSSYAMGWVRQAPGKGLEWVGFINAGGNTYYANWAKGRFTISRDTSKNTVYLQMNSLRAEDTAVYFCARRYSRASGWYDLWGQGTLVTVSS VL: EIVMTQSPSTLSASVGDRVIITCQHSQSISSYLAWYQQKPGKAPKLLIYAASTLASGVPSRFSGSGSGAEFTLTISSLQPDDFATYYCQSYSYSSGIDYGDVFGQGTKLTVL	binds
MYT10974 (antibody, V domains shown, IgG) VH: EVQLVESGGGLVQPGGSLRLSCTASGFSLSSYAMGWVRQAPGKGLEWVGFINAGGNTYYANWHKGRFTISRDTSKNTVYLQMNSLRAEDTAVYFCARRYSRASGWYDLWGQGTLVTVSS VL: EIVMTQSPSTLSASVGDRVIITCQASQSISSYLAWYQQKPGKAPKLLIYAASTLASGVPSRFSGSGSGAEFTLTISSLQPDDFATYYCQSYSYSSGIDYGDVFGQGTKLTVL	binds
MYT11006 (antibody, V domains shown, IgG) VH: EVQLVESGGGLVQPGGSLRLSCTASGFSLSSYAMGWVRQAPGKGLEWVGFINAGGNTYYANWAKGRFTISRDTSKNTVYLQMNSLRAEDTAVYFCARRYSRASGWYDLWGQGTLVTVSS VL: EIVMTQSPSTLSASVGDRVIITCQASQSISSYLAWYQQKPGKAPKLLIYAASHLASGVPSRFSGSGSGAEFTLTISSLQPDDFATYYCQSYSYSSGIDYGDVFGQGTKLTVL	binds
MYT10998 (antibody, V domains shown, IgG) VH: EVQLVESGGGLVQPGGSLRLSCTASGFSLSSYAMGWVRQAPGKGLEWVGFINAGGNTYYANWAKGRFTISRDTSKNTVYLQMNSLRAEDTAVYFCARRYSRASGWYDLWGQGTLVTVSS VL: EIVMTQSPSTLSASVGDRVIITCQASQSIHSYLAWYQQKPGKAPKLLIYAASTLASGVPSRFSGSGSGAEFTLTISSLQPDDFATYYCQSYSYSSGIDYGDVFGQGTKLTVL	binds
MYT11003 (antibody, V domains shown, IgG) VH: EVQLVESGGGLVQPGGSLRLSCTASGFSLSSYAMGWVRQAPGKGLEWVGFINAGGNTYYANWAKGRFTISRDTSKNTVYLQMNSLRAEDTAVYFCARRYSRASGWYDLWGQGTLVTVSS VL: EIVMTQSPSTLSASVGDRVIITCQASQSISSYLAWYQQKPGKAPKLLIYHASTLASGVPSRFSGSGSGAEFTLTISSLQPDDFATYYCQSYSYSSGIDYGDVFGQGTKLTVL	binds
MYT10962 (antibody, V domains shown, IgG) VH: EVQLVESGGGLVQPGGSLRLSCTASGFSLSSYAMGWVRQAPGKGLEWVGFHNAGGNTYYANWAKGRFTISRDTSKNTVYLQMNSLRAEDTAVYFCARRYSRASGWYDLWGQGTLVTVSS VL: EIVMTQSPSTLSASVGDRVIITCQASQSISSYLAWYQQKPGKAPKLLIYAASTLASGVPSRFSGSGSGAEFTLTISSLQPDDFATYYCQSYSYSSGIDYGDVFGQGTKLTVL	binds
MYT11010 (antibody, V domains shown, IgG) VH: EVQLVESGGGLVQPGGSLRLSCTASGFSLSSYAMGWVRQAPGKGLEWVGFINAGGNTYYANWAKGRFTISRDTSKNTVYLQMNSLRAEDTAVYFCARRYSRASGWYDLWGQGTLVTVSS VL: EIVMTQSPSTLSASVGDRVIITCQASQSISSYLAWYQQKPGKAPKLLIYAASTLASGVPSRFSGSGSGAEFTLTISSLQPDDFATYYCHSYSYSSGIDYGDVFGQGTKLTVL	binds
MYT10963 (antibody, V domains shown, IgG) VH: EVQLVESGGGLVQPGGSLRLSCTASGFSLSSYAMGWVRQAPGKGLEWVGFIHAGGNTYYANWAKGRFTISRDTSKNTVYLQMNSLRAEDTAVYFCARRYSRASGWYDLWGQGTLVTVSS VL: EIVMTQSPSTLSASVGDRVIITCQASQSISSYLAWYQQKPGKAPKLLIYAASTLASGVPSRFSGSGSGAEFTLTISSLQPDDFATYYCQSYSYSSGIDYGDVFGQGTKLTVL	binds
MYT10969 (antibody, V domains shown, IgG) VH: EVQLVESGGGLVQPGGSLRLSCTASGFSLSSYAMGWVRQAPGKGLEWVGFINAGGNTHYANWAKGRFTISRDTSKNTVYLQMNSLRAEDTAVYFCARRYSRASGWYDLWGQGTLVTVSS VL: EIVMTQSPSTLSASVGDRVIITCQASQSISSYLAWYQQKPGKAPKLLIYAASTLASGVPSRFSGSGSGAEFTLTISSLQPDDFATYYCQSYSYSSGIDYGDVFGQGTKLTVL	binds
MYT10966 (antibody, V domains shown, IgG) VH: EVQLVESGGGLVQPGGSLRLSCTASGFSLSSYAMGWVRQAPGKGLEWVGFINAGHNTYYANWAKGRFTISRDTSKNTVYLQMNSLRAEDTAVYFCARRYSRASGWYDLWGQGTLVTVSS VL: EIVMTQSPSTLSASVGDRVIITCQASQSISSYLAWYQQKPGKAPKLLIYAASTLASGVPSRFSGSGSGAEFTLTISSLQPDDFATYYCQSYSYSSGIDYGDVFGQGTKLTVL	binds

— patent US20260209386A1 (MYTHIC THERAPEUTICS, published 2026)
